According to PMC9097488:

Key:
[1] = target: Crenotalea thermophila TIR-APAZ after removal of the 6xHis-MBP tag (Crenotalea thermophila); assay: SEC-MALS
[2] = target: MapSPARTA complex (heterodimer of MapAgo and MapTIR-APAZ) (Maribacter polysiphoniae); assay: SEC-MALS

stoichiometry N [1] | stoichiometry N [2] | Substance
1 |  | Crenotalea thermophila short pAgo (natural protein)
 | 4 | MapSPARTA complex (heterodimer of MapAgo and MapTIR-APAZ)
